Results: US20050106647A1 (University of Texas, published 2005)

Molecular target: PA-BODIPY conjugate (Bacillus anthracis protective antigen conjugated to BODIPY FL) (Bacillus anthracis, UniProt P13423 30-764)
Sequence (P13423 30-764 limits assumed): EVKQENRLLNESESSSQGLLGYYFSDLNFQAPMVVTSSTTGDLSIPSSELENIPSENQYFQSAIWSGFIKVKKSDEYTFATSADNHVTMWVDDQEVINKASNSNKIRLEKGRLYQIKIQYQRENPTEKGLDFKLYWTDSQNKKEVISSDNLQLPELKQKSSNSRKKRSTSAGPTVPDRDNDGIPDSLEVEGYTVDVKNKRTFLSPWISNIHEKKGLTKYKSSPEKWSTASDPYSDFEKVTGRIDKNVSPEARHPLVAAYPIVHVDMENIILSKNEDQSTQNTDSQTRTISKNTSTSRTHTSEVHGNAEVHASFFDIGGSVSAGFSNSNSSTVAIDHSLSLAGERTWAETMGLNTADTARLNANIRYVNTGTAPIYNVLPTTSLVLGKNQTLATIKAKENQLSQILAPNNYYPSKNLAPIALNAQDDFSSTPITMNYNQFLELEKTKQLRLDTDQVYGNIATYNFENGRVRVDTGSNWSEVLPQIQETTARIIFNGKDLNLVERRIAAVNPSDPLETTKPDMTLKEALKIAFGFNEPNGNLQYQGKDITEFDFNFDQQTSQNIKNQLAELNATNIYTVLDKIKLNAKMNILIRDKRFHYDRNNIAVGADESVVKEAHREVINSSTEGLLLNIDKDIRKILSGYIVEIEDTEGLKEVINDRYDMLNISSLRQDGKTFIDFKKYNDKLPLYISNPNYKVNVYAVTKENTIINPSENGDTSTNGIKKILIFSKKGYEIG

B1: NlpA-[14B7 scFv] fusion anchored on the E. coli inner membrane (scFv)
scFv: CDQSSSDIQMTQTTSSLSASLGDRVTISCRASQDIRNYLNWYQQKPDGTVKLLIYYTSRLQSGVPSRFSGSGSGTDYSLTISNQEQEDIGTYFCQQGNTLPWTFGGGTKLEIKRGGGGSGGGGSGGGGSGGGGSEVQLQQSGPELVKPGASVKISCKDSGYAFSSSWMNWVKQRPGQGLEWIGRIYPGDGDTNYNGKFKGKATLTADKSSSTAYMQLSSLTSVDSAVYFCARSGLLRYAMDYWGQGTSVTVSS
In the case of B1, the “fold higher mean fluorescence intensity compared to controls” value is reported as ~9 fold.
